Experimental data from the DeepSol protein solubility set.

Test: soluble on expression in E. coli; label from the status in PepcDB or PDB records

| Sequence | soluble on expression in E. coli |
| --- | --- |
| SMRKFGVVVVGVGRAGSVRMRDLRNPHPSSAFLNLIGFVSRRELGSIDGVQQISLEDALSSQEVEVAYICSESSSHEDYIRQFLNAGKHVLVEYPMTLSLAAAQELWELAEQKGKVLHEEHVELLMEEFAFLKKEVVGKDLLKGSLLFTAGPLEEERFGFPAFSGISRLTWLVSLFGELSLVSATLEERKEDQYMKMTVCLETEKKSPLSWIEEKGPGLKRNRYLSFHFKSGSLENVPNVGVNKNIFLKDQNIFVQKLLGQFSEKELAAEKKRILHCLGLAEEIQKYCCSRK | soluble |
| MRFVYLSDLDNNQKNFYKEADRQSALLSMLIEKDIDFIGAGANFYQVGSKKDWSQFPLFADSLLHRSNSLISLQWMEKVEEKDIDEHFQQIHKNYPLAKLYTVPKDQPKTYGYVMKNHEPIYIATDIYPRDEKNTPLIGFYSSRERFNLVVEEFLTTGRPSVSDKIRLLQDSLDQSAQKTGMLVYHPVFTSDKTALKGVMVGVVRITSYFDRLVNSTSLGEELVVRIIDTGFDAGDDPIMYQSSTWNNFKGVDYTTSVKIENRLWKIEYKSDNKLNEYQRLTLEHHHHHH | not soluble |
| MGSDKIHHHHHHMVTKTKTRLGNQRPTQSVTLHYVESLAHEAIELYQKTGRNCYPWQVNLLENIMGIDNNGLWVHQKYGYAIPRRNGKTEDVYILELWALHHGLRILHTAHRISTSHSSFEALKKLLEDMGYVEDVDFVSNKAKGQERIEFKSTGSVIQYRTRTSNGGLGEGFDLLIIDEAQEYTVEQESALKYTVTDSDNPMTVMCGTPPTMVSTGTVFTNFRTKVLAGKSEYSGWSEWSVEDIKDVNDIDSWYLTNPSLGYHLTERKIKAEIGDDELDHNIQRLGYWPSFNQKSAISENEWKRLKVDDVPELSGKLFVGIKYGQDGSNVSMSIAARTIDKKIFIEVIDCQSVRNGMQWIINFLQTADIEKVVVDGANGQTLLANEMKDFKLREPIMPTVSEIITANSVWEQAIVQETLRHANQPSLTEVVTNCDKRNIGSNGGFGYKSLYDDRDISLMDSALLAHWVCYMTKPKRKQRISY | not soluble |
| MDMDREQSVQHFLDLIKKSHRGKFKIYIGMIAGVGKSYRMLQEAHELLENGVDVQIGYIETHGRAGTEALMQGLPVIPRRKIFYKGKELEEMDVDAIIRLHPEIVIVDELAHTNVEGSLNEKRWQDVMTLLDEGINVISAINIQHIESVNEEVQEITGIEVKERVPDSVLQEADEVVNIDLTAEELISRLKAGKIYRPEKIQTALDNFFRTENILQLRELALKEVALRVEKKVENEVVMGVSVGIRHEKFMACISSHEKTPRRIIRKAARLATRYNTTFVALYVQTPRESMDRIDLASQRYLLNHFKLVAELGGEVIQVQSKDILGSIVKVCRDKQISSVCMGTPNLRFPHAICSILGYRKFLNNLSQANVDLIILA | not soluble |
| MGSDKIHHHHHHVDQKEISDIVQRILQDGPQTQEDGYCLVRAQARREWSLRLNNGRFERVSTARERGIGVQAFTPEGASGFASVDALTVEAGREAMKRAMSLAEHNAKLGAELNRAIYDASPLKTEGPNPAKLEFEHFSLAELQEQVMFLHKRLLNRSPEHSWQTSYRQVEDSWCIGRTDGTLVSYVVPRAVLMHQGTVRVQGRAKSALVQRSGVDAGLLLLEKEDSDLERRGVERGEFAKQVCVAPHLPSGHYPLIIDYGLAKGLAHEAFGHAVESDHMQESVLGEAGKLRKGLQVARPGVHIIDGPLEGDWAYQPFSANGLVRETVEIVKDGVLQAGLGDIFSAHKAGMPVSGAGRAESYGHIPLPRMTNIRLLVDHVLPLAPASDLMAEISQVRQTLRAAGELHDERKHLLLLGYRGGQVNPKTGDFVFQCDGIIDVADPNLTIYQPSIFSGKILSALQAIRVGLGGGCYDAIGTCGKGGQSVPSSGGSHRYLLLDRDEYVTLGGEQ | not soluble |
| MLNQLDNLTERVRGSNKLVDRWLHVRKHLLVAYYNLVGIKPGKESYMRLNEKALDDFCQSLVDYLSAGHFSIYERILHKLEGNGQLARAAKIWPQLEANTQQIMDYYDSSLETAIDHDNYLEFQQVLSDIGEALEARFVLEDKLILLVLDAARVKHPA | soluble |
| MGSDKIHHHHHHMKSIPSLDDLDLFARIAQAGGLAVVARQSGVSVPTLSRRMRALELQIGVHLFERGSHGYRVTALGRAFLSETRAFQAEAQRLRRMVATPLMAEVRITAGSWTSAFLAQQLPRFWQEDAQWRPAFLEADTRLDIARRGADIGIRNQRPEQAWLAGRYTGLITYAVYAISDQVRGYVVLPENQAKTPSARWVWSHHGGEVAATARSPRMVADLACAGVGQVVLPRFAAAMFPALQQVGPEIAELSHEEWLVCHHDGRHDPPVRAALEGIAAVLTDTTLRPIGA | not soluble |
| GPLGSMDAKARNCLLQHREALEKDIKTSYIMDHMISDGFLTISEEEKVRNEPTQQQRAAMLIKMILKKDNDSYVSFYNALLHEGYKDLAALLHDGIPVVSSS | soluble |
| MGSDKIHHHHHHMARQFIYHMAGLSKTYGNKKILENIHLSFYPDAKIGILGPNGAGKSTILRIMAGIDKEYTGEAWLSEGVRCGYLPQEPFLDASKDVRDNVMEGVADKQAIVERYNELMMNYSEETADESARLQDIIDGQNLWDLESQVEMAMAALGCPPANGDVTKLSGGERRRVALCKLLLSKPDLLLLDEPTNHLDAETTAWLERYLREYSGAVLLVTHDRYFLDNVTGWILELDRGKGIPYEGNYSAYLAAKAKRLAQEGREEAARQRALSREQEWIASSPKGRQAKSKARIKAYDELVQASRERRPGEAQIIIPIGERLGQVVIEVDNLSKAYGERVLIDDLSFKLPAGGIVGVIGANGMGKSTLFKMLTGQEQPDSGQIRIGETAHMSYVDQSRDSLVGDKTVWEEISGGNDVIKLGKYEMNSRAYCGAFNFKGADQQQKVANLSGGQRNRVHLAKLLKEGGNVLLLDEPTNDLDTETLGALEDALENFAGCAVIISHDRMFLDRLATHILAFEGDGHVEWFEGNFAEYEADKVRRFGADSLNLKRVNYKPLTR | not soluble |
| MGSDKIHHHHHHMILNIDVNLAYSIEQPVDLILQIQAPSFADQHVVSETFDLGNPEHVGRIAGEAGMGDRVLLSTATDFRFSYTAQIDVNRPALALEQLKAVAPHLLPGDAVRYLMPSRYCQSDELQSFVAAEFGHLSGGARIVAMRDWINQRYQYVPGSSTAQTTAIDTFVQRQGVCRDFAHVLIALARASAIPARFVSVYAPHVTPQDFHAVAEVFLDGTWHLVDATGMADASDIARIGVGMDAAEVAFLSSFGPMTMDTQTVSVSIAGS | not soluble |
| GPGSMFYPNSPQTSPQLTQIPYGQQYAMMQRQIQQPYHPFATTEPQARLYPYHYQGPIQQEQGGFITQQSTAASPQYVQMRVTPVDQSIMSGYPNQTANGSSSSSFNYNIHPQQQQQQQQQQQLRHHAMPVGSVPLQDDRYRKQLIVNYLAPDVTSTDLHELFSRFGELDGARIIYDKQTNMSKGYGFVYFCHAEDAKEAVERMSGYEFHGKWLKVGYSTNPLNIVPSNSSPYVHAGSRGAAG | not soluble |
| MGSDKIHHHHHHMHFDIKDLKLFLAISEEGSITRGAEKTYMSAASGSVRIRNLEQSINLRLLYRSSKGITLSSAGETFKHHASLIVNQMEMLRSDMQEHVKGIKGHVRIFSSITAIAEYLPPLLSHFLTLYNDVNIDLREYPSPEIVRSVIEGKTDLGIVAGNITTDNLEILPFRTDRLVLITATDHPFADRKSVTFHELIQYEQISLPEGTGMFEFIRKKAELVPSKLKIRIQVGNFETFCRMVEAKVGIGIMPHSAASRLRQLHEFSIIDLDEFWSLRKLQICARSFDKLPGFTQKLVTMLTAQTE | not soluble |
| MSLNKPLADRMRPIKLEDVVGQEHILSKNQILNKTLQAGHITNMIFYGPPGVGKTTVANIISNMTNKKLYKLNATNASIKDIQRIVAELDSFMTMNGVLLYLDEIQNFNKKQQQSLLEYIENGKITLIASTTENPYHYIYNAILSRSTVFEFKLLTKSNVIEGLKQVIKRINDEGKTLVEYEEEALDYIATASNGDLRRAMNALELAMYAAESENKEQVFLTIHIAQESTQKKVISYDKFGDQHYDILSAFQKSIRGTDPDAAIHYLARLVKAGDLNSICRRLLVIASEDIGLAYPTAITIVKSCVDAAMQVGFPEARINLAQATLVLATAPKSNSVIEAMDRALADLDQKDIGEIPTSLKDAHYKGASDLGRGVTYKYPHHYENNYIQQQYLPENIKNEKYYGSQNNKMEQRIFSYLEQLKKEGHHHHHH | not soluble |
| MTRPDNEPARLRSVAENLAAEAAAFVRGRRAEVFGISRAGDGDGAVRAKSSPTDPVTVVDTDTERLLRDRLAQLRPGDPILGEEGGGPADVTATPSDRVTWVLDPIDGTVNFVYGIPAYAVSIGAQVGGITVAGAVADVAARTVYSAATGLGAHLTDERGRHVLRCTGVDELSMALLGTGFGYSVRCREKQAELLAHVVPLVRDVRRIGSAALDLCMVAAGRLDAYYEHGVQVWDCAAGALIAAEAGARVLLSTPRAGGAGLVVVAAAPGIADELLAALQRFNGLEPIPDALEHHHHHH | soluble |
| MPKIPITLITGFLGSGKTSFLSEYLNQTDHQGVALIINEIGQAALDQRILSVQYCGEKMLYLNAGCVCCNKRLDLVESLKATLNNYEWHGEILRRIIIETTGLANPAPILWTILSDTFLGVHFEIQSVVACVDALNAREHLTNNEAKEQIVFADSVLLTKTDLQNDSAALTKLKERIQALNPSAEIFDKRAIDYESLFSRKNRARNFMPLEHHHHHH | not soluble |
| MGSDKIHHHHHHVSLIQEYKKQQNWRDWERYLESIPYSGEDTVIDLGCSVGDVSQLFSLRVKNVIGIDVNQDFIDICESQKSVNQTFICSDFLSLDSQLIESTNGIWSSFSLSYLRNPLDFLIYLNASMKQGGWIALLDISCFISGNLAKKSQYYEKVLKFELESYKSGIYDFDFGSKMLSMLQNAGFDIVYLDNDVTDPELNFTGAASAEIIHGWAARLNRMNRLKDEIGAEYPDFCNELLANLSSDTHEKRQNVRFIVARKPITSVNKATDSCAGVHSQ | not soluble |
| MNDALLRALSTVNDPELHRDLVSLGMIERAELSGDVAQVKVNLTTPACPLKGQIELDVRSALLQVPGVRDVQIEFGAMVRAATQPALPGVKHVVLVGSGKGGVGKSSVAVNLAASLARDGARVGLLDADVYGPSVAHMLGQGQARVTANEDRKMRPIEAHGVRFISMANLSPAGQALVWRGPMLHSAIQQFLKDSAWGELDYLIVDLPPGTGDVQLSLTQTVQVTGAVIVTTPQDVALIDAARAIDMFRKASVPVLGVVENMSYFVAPDTGLTYDIFGRGGSRKLGEQYPLLGEIPLDVEVRKDADAGAPAILAHPESVAAQALRAVARTLAGQISVRTLSELPEQLPVLLEHHHHHH | soluble |
| APRSVAMVVPQGSDIRQLSDLRGKRIALNKGSNVHWLLLQILEDAGLGLNDVRVVYTPPKYPLTASDYLAVDAWMMWDPLLSDAEHTGELRVVASGEGRVNNHQFYLSRRDYLAQHGDIMRRLLTELTHTGQFIDSHRGEAARLLSAELGI | not soluble |
| MAHHHHHHMLRLCLALRSASVQRKPHLFRIDLTSKHTPGHLYLADRAVKSTAADPCFVCLDNAMTCQTVDSNAAVVLRSCMTKGRELFQYGRMRFQGMSAALVFRHNHLVFQGIGDASVQALEMSLQHKDVFALLGGISPHENIPEWARAVEKAIAEGDVEYVAEEMLLQLRCPTEGCTSVVAKISKFSAGLPEPPNYSHAM | not soluble |
| GSHMTREMRILILGLDGAGKTTILYRLQVGEVVTTIPTIGFNVETVTYKNLKFQVWDLGGLTSIRPYWRCYYSNTDAVIYVVDSCDRDRIGISKSELVAMLEEEELRKAILVVFANKQDMEQAMTSSEMANSLGLPALKDRKWQIFKTSATKGTGLDEAMEWLVETLKSRQ | soluble |
